Assay results from the supplement of paper PMC10126150.
± gives the standard deviation of the averaged measurements.

System: ATP
Test: switch fluorescence ratio, 500 uM ATP over buffer (Cy3 cluster intensity, sum of 5 cycles each) (fold (ratio)); higher = stronger signal-on switching upon ATP binding; sequences stand for … in TCGTCGGCAGCGTCAGATGTGTATAAGAGACAGTTTTTTTTTTTTTTTTTTTTTTTTT…TC
Conditions: aptamer strand: ATP DNA aptamer (quencher-CACCTGGGGGAGTATTGCGGAGGAAGG + anchor), 100 nM annealed; ATP concentration: 500 uM
Procedure, shortened: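 Five buffer/ATP imaging cycles were run on Cy3-labelled switching-strand clusters on a modified Illumina MiSeq flow-cell, with NaOH stripping and re-annealing between cycles. In each cycle, clusters annealed to 100 nM quencher-labelled ATP aptamer were imaged in selection buffer, then after 15 min with 500 uM ATP at 22 °C. Per cluster, the fluorescence ratio is summed target-cycle over summed buffer-cycle Cy3 intensity, averaged per switch-domain sequence. Only clusters within 100-1000 RFU were kept.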
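Also: ATP exposure 15 min at 22 °C before imaging.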

| Sequence | switch fluorescence ratio |
| --- | --- |
| TGTCAAAAAT | 0.982 ± 0.043 |
| GCGTTTTCGT | 0.972 ± 0.013 |
| TTTTCGATTG | 1.01 ± 0.041 |
| AAAGGTGGGT | 1.51 ± 0.86 |
| GGTTCTGGCC | 0.996 ± 0.013 |
| TTTGGGGGAA | 0.994 ± 0.046 |
| ATCGGCTCTC | 1.03 ± 0.025 |
| TTCGTGAACG | 1 ± 0.071 |
| ATAGGTCAAC | 0.992 ± 0.044 |
| ATCTAAAGGG | 0.999 ± 0.015 |
| TTGGCGGGAC | 0.9819 ± 0.0036 |
| GAGGCGGCGG | 1.067 ± 0.0051 |
| GCATGGTTAA | 1.019 ± 0.0023 |
| TTGGGTGTGG | 1.01 ± 0.037 |
| ACGGGCGGTC | 1.01 ± 0.015 |
| TGGTAGGGTT | 0.969 ± 0.028 |
| TGATGATCC | 1.01 ± 0.042 |
| TTCCCTTAAT | 1 ± 0.015 |
| GAGATGTTTT | 0.988 ± 0.043 |
| AGGGGAGTCG | 0.987 ± 0.021 |
| CAAAAAAAGA | 0.986 ± 0.067 |
| GAGCCCTTAT | 0.9812 ± 0.0078 |
| ATATATAGTT | 1.043 ± 0.01 |

| Sequence | switch fluorescence ratio |
| --- | --- |
| GCCATATTTC | 0.998 ± 0.041 |
| ATAGAATTGG | 1.02 ± 0.021 |
| TTTTACTGAG | 1.04 ± 0.025 |
| TTTGATTTTG | 0.989 ± 0.016 |
| TTTATCGTTT | 1 ± 0.032 |
| CCCAATTTCT | 1.05 ± 0.045 |
| TTGGGGGGGC | 0.997 ± 0.039 |
| TTGTTGAGAT | 1.02 ± 0.035 |
| TTGTTATTAG | 1.03 ± 0.047 |
| GAACGGAATT | 1.19 ± 0.023 |
| CTTGAAATTC | 1.04 ± 0.017 |
| TTTATTCAAG | 0.988 ± 0.021 |
| TTCAAGGTGC | 1.4 ± 0.069 |
| AGGTTTGTAG | 0.983 ± 0.013 |
| CACAAACAGA | 1.12 ± 0.036 |
| CCGATAATAG | 5.21 ± 2.2 |
| TGTGCGTCGA | 1.001 ± 0.00055 |
| TCGGGAGGCT | 1 ± 0.028 |
| ACAAGGGAGC | 0.954 ± 0.018 |
| GGCCTTTTAA | 1.04 ± 0.029 |
| TACCAGAGCA | 1.08 ± 0.022 |
| AGAGGCTTAG | 1 ± 0.066 |
| TAAGCGCCAT | 1.029 ± 0.0049 |

| Sequence | switch fluorescence ratio |
| --- | --- |
| TAAAGGAGAT | 1.03 ± 0.032 |
| TAGAAGGGGA | 0.994 ± 0.044 |
| GGTTCGGCTG | 0.982 ± 0.012 |
| AGGGAATCGG | 0.976 ± 0.03 |
| ACTTTACGGC | 1.286 ± 0.0091 |
| ATAAATGCGG | 1.02 ± 0.041 |
| AATGGGTGGT | 1 ± 0.017 |
| TCTATTTGCA | 1 ± 0.042 |
| AATATTATGG | 1 ± 0.016 |
| CGTGGATGCG | 1.025 ± 0.0038 |
| GTAGTTTTTT | 1.04 ± 0.032 |
| CCCGGACGGT | 1 ± 0.025 |
| ATGAGAATGC | 1.024 ± 0.0063 |
| GCGACAAAAT | 1.11 ± 0.047 |
| TCGAGTTG | 0.9972 ± 0.0093 |
| GCAATAGTGG | 1.25 ± 0.025 |
| CGACTAGCGA | 1.4082 ± 0.00063 |
| ACAAGAAAGG | 1.01 ± 0.035 |
| ACTTGTGCTT | 0.9728 ± 0.0027 |
| AGTAAGACAG | 0.986 ± 0.08 |
| CAAGGTTTTT | 1.01 ± 0.021 |
| AGAGTCAATG | 1.04 ± 0.023 |
| CAAAAGGGCC | 1.021 ± 0.0042 |

| Sequence | switch fluorescence ratio |
| --- | --- |
| GGGATGGATA | 1.03 ± 0.085 |
| GTTGGAAAGG | 0.97 ± 0.039 |
| CATTTTTTGT | 1.027 ± 0.0052 |
| GATTTTGTGC | 1 ± 0.054 |
| CAGACTGGTT | 1.011 ± 0.0067 |
| ATTTCGTTGT | 1 ± 0.07 |
| CTGTATCAAG | 0.999 ± 0.013 |
| TGTGTTGTGG | 0.997 ± 0.028 |
| GATTTTTCGT | 0.973 ± 0.01 |
| GAGGAGTAGG | 1.08 ± 0.036 |
| ATTAGGAAAG | 0.998 ± 0.028 |
| AGGTAAAGGC | 1.02 ± 0.022 |
| CACTACGACT | 1.084 ± 0.0034 |
| CGGTTGCGTT | 0.987 ± 0.035 |
| AGGTAAGTGC | 1.025 ± 0.0017 |
| CGAAACTCTG | 1 ± 0.03 |
| ATTATATCCC | 1.06 ± 0.026 |
| GCGATGGGTC | 1.06 ± 0.0091 |
| TAATGAGGGG | 0.992 ± 0.033 |
| AATGTTGTTT | 0.976 ± 0.02 |
| GAGATCTAGT | 1.01 ± 0.019 |
| TTGATCTGGT | 1.01 ± 0.027 |
| GCCGTAAGGA | 1.06 ± 0.033 |

| Sequence | switch fluorescence ratio |
| --- | --- |
| TTACAGTTCA | 1.026 ± 0.0058 |
| TGAGTTGACT | 1 ± 0.015 |
| CGCACGATGC | 2.89 ± 0.32 |
| ACTGGGATC | 1.01 ± 0.019 |
| TTAAATCATT | 1.014 ± 0.0099 |
| AGGTCAGCCT | 1.03 ± 0.029 |
| CATTAAGGAG | 1.06 ± 0.092 |
| TGCAGGGCGC | 1.04 ± 0.028 |
| TTTCAATGGT | 1 ± 0.045 |
| CTTTTGAGAC | 1.02 ± 0.053 |
| ACGGGTGGGG | 1.05 ± 0.051 |
| TGGTTGAAAA | 0.875 ± 0.033 |
| AACGTGGTTT | 1.01 ± 0.025 |
| TGCAATATAT | 1.14 ± 0.01 |
| CGTAAAGGCC | 0.9465 ± 0.0012 |
| GCGGGGGTCT | 1.03 ± 0.1 |
| GGTTTTAGGA | 0.987 ± 0.025 |
| GGAATTTGGG | 0.99 ± 0.021 |
| CAGGGTTCGT | 0.9894 ± 0.0081 |
| GGGTAAGAGT | 1 ± 0.043 |
| CTTATGATAG | 0.97 ± 0.013 |
| AAGTAATTTC | 1.02 ± 0.013 |
| ACGATTTTAG | 1.04 ± 0.041 |

| Sequence | switch fluorescence ratio |
| --- | --- |
| ATTTCGAATG | 0.9827 ± 0.0076 |
| GGTATATTTT | 1.03 ± 0.1 |
| TTCAGGGGGA | 1.02 ± 0.023 |
| TCGAGGGAAC | 1.03 ± 0.018 |
| CGAACGGTGG | 0.998 ± 0.056 |
| GGGGGGGACA | 0.984 ± 0.031 |
| TTATGGATGT | 1.03 ± 0.013 |
| TGTTTCTCGC | 1.05 ± 0.037 |
| GCTAAAATTT | 1 ± 0.029 |
| ATGTCCCGTT | 0.98 ± 0.014 |
| AGGAAGGGGG | 0.992 ± 0.034 |
| CAGAGTAAGC | 1.01 ± 0.021 |
| GCCGGGACGG | 0.965 ± 0.022 |
| TTTTGGGTAG | 0.984 ± 0.03 |
| CACGATTTGG | 0.995 ± 0.014 |
| TTGTGGGGGA | 1.02 ± 0.046 |
| TTTCCAAACA | 1.01 ± 0.014 |
| TTCTAGCGAA | 1.17 ± 0.22 |
| GTTATATTTG | 0.997 ± 0.031 |
| CATGTGAAGC | 1.014 ± 0.0072 |
| GCCGTGAGAG | 0.9842 ± 0.0013 |
| AAGCTGGTAC | 1.99 ± 0.1 |
| CTGTGCCAAG | 1.0036 ± 0.00061 |

| Sequence | switch fluorescence ratio |
| --- | --- |
| ATGCTCTGCC | 0.992 ± 0.029 |
| AACCAGCTGG | 1.04 ± 0.03 |
| TACTTTTCAA | 1.01 ± 0.011 |
| TTCCTCGGGT | 1.03 ± 0.014 |
| GGCTGCGCGG | 1 ± 0.032 |
| CGTGTGGTTC | 1.02 ± 0.036 |
| TGTTAGAGGC | 1.03 ± 0.1 |
| TTTTTGTCTT | 0.96 ± 0.023 |
| GATTCCATAG | 1.06 ± 0.034 |
| GATGGTTGAA | 0.984 ± 0.021 |
| GAGACTTGGG | 1.03 ± 0.029 |
| CATTTACACT | 1.05 ± 0.059 |
| GACGGGCAAG | 1.02 ± 0.053 |
| ACCTAGTGTG | 1.135 ± 0.0024 |
| ACTTTGATTG | 0.982 ± 0.024 |
| GGCCAGGAGA | 1.04 ± 0.021 |
| TTGGGGAGCT | 1.04 ± 0.014 |
| GGGTGATTTT | 0.992 ± 0.049 |
| TCGTGTAGCT | 1 ± 0.03 |
